{"source": "the DeepSol protein solubility set", "data": [{"test": "soluble on expression in E. coli; label from the status in PepcDB or PDB records", "values": [{"sequence": "MAENKKKNDDMATVEFESSEEVSIIPTFDKMGLREDLLRGIYAYGFEKPSAIQQRAIPAILKARDVIAQAQSGTGKTATFSISVLQSLDTQVRETQALILSPTRELAVQIQKVVLALGDYMNVQCHACIGGTNLGEDIRKLDYGQHVVSGTPGRVFDMIRRRNLRTRAIKLLVLDEADEMLNKGFKEQLYDIYRYLPPGAQVVLLSATLPHEILEMTSKFMTDPIRILVKRDELTLEGIKQFFVAVDREEWKFDTLIDLYDTLTITQAVLFCNTRRKVDWLTDKMKEANFTVSSMHGDMEQKDRDEVMKEFRAGTTRVLISTDVWARGLDVPQVSLVINYDLPNNRELYIHRIGRSGRFGRKGVAINFVKQDDVRILRDIEQYYSTQIDEMPMNIADII", "soluble on expression in E. coli": "not soluble"}, {"sequence": "MAEQQPSKEEKKEDKKDEKEEELPAPSVQQSIRQLPKIQITDDDKGEQLPECTEGEWDASDEPFSAELLNVKNAPNKVSVFSGPYRSKETIEKIKKFRAAMPPVIPIIDERPDKLAQMMSRIFSEIIDGRDLSKIKVFFFIK", "soluble on expression in E. coli": "not soluble"}, {"sequence": "MAESVFAERIVQNLLDTDFYKLTMMQAVLHNYPNAEVEWEFRCRNAEDLRPYLAEIRYQIERLAEVEVTADQLAFLERIPFMKPDFIRFLSLFRFNLRYVHTGIEDGQLAIRLRGPWLHVILFEVPLLAIVSEVRNRYRYREVVLEQVGEQLYRKLDWLSAQASSEELAEFQVADFGTRRRFSYRTQEEVVHILKRDFPGRFVGTSNVHLAREYDLKPIGTMAHEWLMAHQQLGPRLVDSQQAALDCWVREYRGQLGIALTDCITMDAFLDDFDLYFAKLFDGLRHDSGDPLAWAEKAIAHYRRLGIDPLSKTLVFSDGLDMPKALQLFRALRGKINVSFGIGTNLTCDIPGVEPMNIVLKMTACNGHPVAKISDAPGKTQCRDENFVAYLRHVFNVPA", "soluble on expression in E. coli": "not soluble"}, {"sequence": "MAETFKIRKLEISDKRKGFIELLGQLTVTGSVTDEEFDRRFEEIRSYGDDHVICVIEEETSGKIAATGSVMIEKKFLRNCGKAGHIEDVVVDSRFRGKQLGKKVVEFLMDHCKSMGCYKVILDCSVENKVFYEKCGMSNKSIQMSKYFD", "soluble on expression in E. coli": "soluble"}, {"sequence": "MAETTPKVKGHVVILPYPVQGHLNPMVQFAKRLVSKNVKVTIATTTYTASSITTPSLSVEPISDGFDFIPIGIPGFSVDTYSESFKLNGSETLTLLIEKFKSTDSPIDCLIYDSFLPWGLEVARSMELSAASFFTNNLTVCSVLRKFSNGDFPLPADPNSAPFRIRGLPSLSYDELPSFVGRHWLTHPEHGRVLLNQFPNHENADWLFVNGFEGLEETQDCENGESDAMKATLIGPMIPSAYLDDRMEDDKDYGASLLKPISKECMEWLETKQAQSVAFVSFGSFGILFEKQLAEVAIALQESDLNFLWVIKEAHIAKLPEGFVESTKDRALLVSWCNQLEVLAHESIGCFLTHCGWNSTLEGLSLGVPMVGVPQWSDQMNDAKFVEEVWKVGYRAKEEAGEVIVKSEELVRCLKGVMEGESSVKIRESSKKWKDLAVKAMSEGGSSDRSINEFIESLGK", "soluble on expression in E. coli": "soluble"}, {"sequence": "MAEVKKKIKPGAIEAHAEELAIVVHYEVQEVSTQSDGSQKVISKEPGEKKISVKSLSEKTNVPLLATEIIEKCKLIHPSKAGQVEELLYQLQSRGGGGGADAKAKPAAKPAAASPAKSAAAAPPPPSNVAQSPQKPGQPPSTPSKKPPAAAGAPAPMLNGKPAPKAQSRLDAEAEERADLQARRQAQAMQIFKMQQKQYEQAYMNKLDEYIEGLYEEEMPKKVRATGMIAQLFRNTENFEVLLSHETLMQTLSRVLREDGKRSIDLCTNIISVFFSVSNFTQFHGLIMQNQVGALTMDLIDLEIKRTEHRASEENISPAMVAQKALEASQGQVTLSEREKKLLALIQKQDRLLYIAFYMLLNLSEDIEVERKMKKKNIVVYLVKMLERSNVELLILATTFLKKLSIYKENKETMSSCKIVEKLMKFVPVLNDVLLMSVLRLLHNLSFDHSLRDDMVKHGLIPKAVELMMVPRFQPVVLGLLYHISMEDKYKSLFTFTDCLNKMYDMLMRVQADLRNTPELIALAVNLTQNPRNAETMCEGDRFDKMMRRAFQTCDELMFKVLRNLSQQEGINIKRRFGPYVEQLVTLLRAPDITAELFVEVLGCLANLYIPEFDFLGLVRKHDLLTFLATYAQPGAVDDDILLEVVMFVGVLCNEGTAPLIVSSGLVTTLFQLMGDKKEDDEFVLQIAFTFHKFLLHDETRASLLTNTQQVVFYLVDLLQDKNKEVRRVADQCLDIIMDTDEEWAVQIRNLKFESFNQEWLDVVSQPAGGMAAHAGRQRNGYDDETEVDYSGGDGYYNIGDQRLVADFDDLGTNGGTWGPGDEGLQGGYEGNYDGYDEEELRQGYAM", "soluble on expression in E. coli": "not soluble"}, {"sequence": "MAEYKFYYFNGRGLGDVSRQLFALSGTKYEDIRIEHADWPAQKPKMPFGQMPVLELSSGLQIPQSMAIARYLAKKFGYAGKTDEEAALADALIDQFKDFYAEIKPYYYAKIGVLQNDTEEEKKKTLIPARDKFLTIIGKFLKLSISGFLFSGGLTYADLMICDNMRTLIAWWPEYLNEYPDIKAWYQKVDGIPEIRKHLESSPDKGF", "soluble on expression in E. coli": "soluble"}, {"sequence": "MAFEFKLPDIGEGIHEGEIVKWFIKPGDEVNEDDVLLEVQNDKAVVEIPSPVKGKVLEVLVEEGTVAVVGDTLIKFDAPGYENLKFKGDDHDEAPKAEATPAATAEVVNERVIAMPSVRKYARENGVDIHKVAGSGKNGRIVKADIDAFANGGQAVAATEAPAAVEATPAAAKEEAPKAQPIPAGEYPETREKMSGIRKAIAKAMVNSKHTAPHVTLMDEVDVTELVAHRKKFKAVAADKGIKLTYLPYVVKALTSALREYPMLNTSLDDASQEVVHKHYFNIGIAADTDKGLLVPVVKDTDRKSIFTISNEINDLAGKAREGRLAPAEMKGASCTITNIGSAGGQWFTPVINHPEVAILGIGRIAEKPVVKNGEIVAAPVLALSLSFDHRLIDGATAQKALNQIKRLLNDPQLLVMEA", "soluble on expression in E. coli": "not soluble"}, {"sequence": "MAFKDTFNKMISYFDTDEVNEVEEDVAASTDNVIPRSQQSVRASSHPKQEPRNNHVQQDHQARSQEQTRSQMHPKHGTSERYYQQSQPKEGHEMVDRRKRMSTSGIANRREQYQQSTCSDQTTIALKYPRKYEDAQEIVDLLIVNECVLIDFQFMLDAQARRCLDFIDGASKVLYGSLQKVGSSMYLLAPSNVSVNIEEMTIPHTTQDIGFDFDMKRRLEHHHHHH", "soluble on expression in E. coli": "not soluble"}, {"sequence": "MAFKSDVIFEEIKERIATDKEMVKKVGTSFRMTIAGADGKTKVWTIDAKSDTPYVGDDSSRPVEIEINIKDSDFIAIAAGKMKPDQAFMQGKMKLKGNIAKAMKLRTILDPKMLKAKL", "soluble on expression in E. coli": "soluble"}, {"sequence": "MAFLDNPTIILAHIRQSHVTSDDTGMCEMVLIDHDVDLEKIHPPSMPGDSGSEIQGSNGETQGYVYAQSVDITSSWDFGIRRRSNTAQRLERLRKERQNQIKCKNIQWKERNSKQSAQELKSLFEKKSLKEKPPISGKQSILSVRLEQCPLQLNNPFNEYSKFDGKGHVGTTATKKIDVYLPLHSSQDRLLPMTVVTMASARVQDLIGLICWQYTSEGREPKLNDNVSAYCLHIAEDDGEVDTDFPPLDSNEPIHKFGFSTLALVEKYSSPGLTSKESLFVRINAAHGFSLIQVDNTKVTMKEILLKAVKRRKGSQKVSGSRADGVFEEDSQIDIATVQDMLSSHHYKSFKVSMIHRLRFTTDVQLGISGDKVEIDPVTNQKASTKFWIKQKPISIDSDLLCACDLAEEKSPSHAIFKLTYLSNHDYKHLYFESDAATVNEIVLKVNYILESRASTARADYFAQKQRKLNRRTSFSFQKEKKSGQQ", "soluble on expression in E. coli": "soluble"}, {"sequence": "MAFNTPTLSTLIKQGEQQFQYRFPTLKRHNVIGVINRICAALSAGEHMHLDWLARQIIPTTAEEDYLIEYCLYKGIVRKQASTATGLVTVTAANDTTIPAGTVFEDTNTGLTFITTQETVVKAGTADIAVKCETTGVEGNLKAGTSLSLTSAILGLLPTATVKVMSGGADIESLSRLLARLIYRVQYPPAGGASHDYIRWATEVPGVTRAWCFERYYGGGTVGVAFACDEREDILPTPEDIARVRAYIEGHKNEVTGQFEGMPANVELYVFAPQFQAVNFKIRLAPNTPTLRQAVRKSLAAYLANAGVGALLYLSQIRATVSNTAGEVDNSVIFPTADVQLLSDNIAILGDIEWL", "soluble on expression in E. coli": "not soluble"}]}]}
